Test results reported in article PMC8906792 (eNeuro, 2022).

B1: recombinant human αA-crystallin T148D (phosphomimetic) (natural protein, UniProt P02489 1-173, looked up)
chain: MDVTIQHPWFKRTLGPFYPSRLFDQFFGEGLFEYDLLPFLSSTISPYYRQSLFRTVLDSGISEVRSDRDKFVIFLDVKHFSPEDLTVKVQDDFVEIHGKHNERQDDHGYISREFHRRYRLPSNVDQSALSCSLSADGMLTFCGPKIQDGLDATHAERAIPVSREEKPTSAPSS
B2: recombinant human αA-crystallin T148A (nonphosphorylatable) (natural protein, UniProt P02489 1-173, looked up)
chain: MDVTIQHPWFKRTLGPFYPSRLFDQFFGEGLFEYDLLPFLSSTISPYYRQSLFRTVLDSGISEVRSDRDKFVIFLDVKHFSPEDLTVKVQDDFVEIHGKHNERQDDHGYISREFHRRYRLPSNVDQSALSCSLSADGMLTFCGPKIQAGLDATHAERAIPVSREEKPTSAPSS

Target: the molecule itself
Experiment: native gel or EMSA; NativePAGE 3-12% Bis-Tris gel, 7.5 ug of recombinant protein per lane; oligomer profile from <480 to 1236 kDa, median size read against markers

Protein | binding result
B1 | binds
B2 | binds
